From US20210032365A1 (Chugai, published 2021)

T1: human C1s (human, UniProt P09871 16-688)
T1 construct: Analyte in the Biacore assays; also called hC1s; serum-derived human C1s (CompTech)
T1 sequence: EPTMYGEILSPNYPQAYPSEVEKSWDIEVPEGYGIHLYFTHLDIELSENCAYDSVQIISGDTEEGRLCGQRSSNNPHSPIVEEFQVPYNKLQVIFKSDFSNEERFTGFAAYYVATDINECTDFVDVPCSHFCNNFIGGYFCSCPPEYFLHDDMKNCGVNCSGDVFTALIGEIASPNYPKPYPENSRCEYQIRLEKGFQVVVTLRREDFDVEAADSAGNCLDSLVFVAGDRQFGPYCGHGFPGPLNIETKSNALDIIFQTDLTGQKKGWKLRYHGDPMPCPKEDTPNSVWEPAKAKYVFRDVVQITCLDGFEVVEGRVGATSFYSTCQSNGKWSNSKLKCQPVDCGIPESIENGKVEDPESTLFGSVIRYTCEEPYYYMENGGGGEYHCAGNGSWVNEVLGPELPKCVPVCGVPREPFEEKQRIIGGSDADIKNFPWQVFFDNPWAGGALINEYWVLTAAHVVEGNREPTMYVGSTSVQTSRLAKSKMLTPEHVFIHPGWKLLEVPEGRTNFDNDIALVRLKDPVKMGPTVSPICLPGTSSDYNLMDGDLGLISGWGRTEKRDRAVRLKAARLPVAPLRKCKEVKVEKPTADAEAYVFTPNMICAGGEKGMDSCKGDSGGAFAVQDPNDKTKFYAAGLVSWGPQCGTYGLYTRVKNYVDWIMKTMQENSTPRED


Key:
human C1s [1] = molecular target: T1, human C1s; experiment: SPR; KD at pH 5.8 (1.2 mM Ca) over KD at pH 7.4 (1.2 mM Ca)
Protocol: (§1) Each antibody was captured onto the sensor surface by protein A/G. Antibody capture levels were aimed at 200 resonance unit (RU). Serum-derived human C1s (CompTech) or recombinant C1s prepared in EXAMPLE 1 was injected at 50 nM, followed by dissociation. The sensor surface was regenerated in each cycle with 10 mM Glycine-HCl, pH 1.5. […] The ratio of KD 5.8+ to KD 7.4+(“KD 5+/7+”) and that of KD 5.8− to KD 7.4+(“KD 5−/7+”) were calculated. When the KD 5+/7+ or KD 5−/7+ of a variant is larger than that of the parent antibody IPN009VH2-SG4GK/IPN009VK3-SK1, that variant is considered to be “pH”- or “pH and Ca”-dependent, respectively. When binding response in 5(+) buffer and/or in 5(−) buffer of a variant is much lower than that of IPN09VH2/IPN009VK3, that variant is also considered as “pH”- and/or “pH and Ca”-dependent. Therefore, such mutations are effective to generate “pH”- and/or “pH and Ca”-dependent antibody. To further enhance “pH” and/or “pH and Ca” dependency, a combination of histidine mutations was conducted. Antibodies with combinations of histidine mutations were evaluated using Biacore by the method described above.
(§2) C1_1IPN92H0033 (SEQ ID NO: 17)-SG4GK/IPN93L0024 (SEQ ID NO: 18)-SK1 (IPN92H0033/IPN93L0024) was selected for further optimization. Histidine, Lysine, Arginine, aspartic acid, glutamic acid, and glutamine scanning was conducted for CDRs and certain positions of FRs of IPN92H0033/IPN93L0024. Variants with a mutation were generated and purified, and evaluated using Biacore by the method mentioned above. All variants were evaluated using Biacore as mentioned above. Mutations that improved “pH” and/or “pH and Ca” dependency were selected for the combination.

human C1s [2] = molecular target: T1, human C1s; experiment: SPR; KD at pH 5.8 (3 uM Ca) over KD at pH 7.4 (1.2 mM Ca)
Protocol: as §1, §2

human C1s [3] = molecular target: T1, human C1s; experiment: SPR (Biacore T200, 37C), Ab captured on protein A/G; pH 5.8, 1.2 mM Ca
Protocol: as §1, §2

human C1s [4] = molecular target: T1, human C1s; experiment: SPR (Biacore T200, 37C), Ab captured on protein A/G; pH 5.8, 3 uM Ca
Protocol: as §1, §2

Row | Binder | KD 5(+)/7(+) (human C1s [1]) | KD 5(-)/7(+) (human C1s [2]) | Kd (human C1s [3]) | koff (human C1s [3]) | kon (human C1s [3]) | Kd (human C1s [4]) | koff (human C1s [4]) | kon (human C1s [4])
1 | C1_IPN92H0162-SG4GK/IPN93L0024-SK1 (antibody, human IgG4 S228P, kappa, name in Kabat numbering, V domains shown, Substitutions from IPN009VH2, Kabat numbering; also called IPN92H0162/IPN93L0024) VH: EVMLVESGGGLVKPGGSLRLSCAASGFTFSNYAMSWVRQAPGKGLEWVATISSGGSHTYKLDSVKGRFTISRDNSKDTLYLQMNSLRAEDTALYYCARLFTGHAMDYWGQGTLVTVSS VL: QIVLTQSPATLSLSPGERATLSCTASSSVSSSYLHWYQQKPGKAPKLWIYSTSNLASGVPSRFSGSGSGTDYTLTISSLQPEDFATYYCHQYYRLHPITFGQGTKLEIKR | 6.4 | 2.72 | 11.5 nM | 0.00524 s⁻¹ | 456000 M⁻¹ s⁻¹ | 4.89 nM | 0.00784 s⁻¹ | 1.6e+06 M⁻¹ s⁻¹
2 | C1_IPN92H0261-SG4GK/IPN93L0091-SK1 (antibody, human IgG4 S228P, kappa, name in Kabat numbering, V domains shown, Substitutions from IPN009VH2 / IPN009VK3, Kabat numbering; also called IPN92H0261/IPN93L0091) VH: EVMLVESGGGLVKPGGSLRLSCAASGFTFSNYAMSWVRQAPGKGLEWVATISSGGSHTYELDSVKGRFTISRDNSKDTLYLQMNSLRAEDTALYYCARLFTKHAMDYWGQGTLVTVSS VL: QIVLTQSPATLSLSPGERATLSCTASSSVSSSRLHWYQQKPGKAPKLWIYSTSNLASGVPSRFSGSGSGTDYTLTISSLQPEDFATYYCHQYYRLHPITFGQGTKLEIKR | 16.3 | 12.3 | 16.1 nM | 0.00533 s⁻¹ | 332000 M⁻¹ s⁻¹ | 12.1 nM | 0.00736 s⁻¹ | 606000 M⁻¹ s⁻¹
3 | C1_IPN92H0165-SG4GK/IPN93L0024-SK1 (antibody, human IgG4 S228P, kappa, name in Kabat numbering, V domains shown, Substitutions from IPN009VH2, Kabat numbering; also called IPN92H0165/IPN93L0024) VH: EVMLVESGGGLVKPGGSLRLSCAASGFTFSNYAMSWVRQAPGKGLEWVATISSGGSHTYYDDSVKGRFTISRDNSKDTLYLQMNSLRAEDTALYYCARLFTGHAMDYWGQGTLVTVSS VL: QIVLTQSPATLSLSPGERATLSCTASSSVSSSYLHWYQQKPGKAPKLWIYSTSNLASGVPSRFSGSGSGTDYTLTISSLQPEDFATYYCHQYYRLHPITFGQGTKLEIKR | 2.1 | 4.62 | 3.74 nM | 0.00228 s⁻¹ | 608000 M⁻¹ s⁻¹ | 8.18 nM | 0.715 s⁻¹ | 8.74e+07 M⁻¹ s⁻¹
4 | C1_IPN92H0166-SG4GK/IPN93L0024-SK1 (antibody, human IgG4 S228P, kappa, name in Kabat numbering, V domains shown, Substitutions from IPN009VH2, Kabat numbering; also called IPN92H0166/IPN93L0024) VH: EVMLVESGGGLVKPGGSLRLSCAASGFTFSNYAMSWVRQAPGKGLEWVATISSGGSHTYYEDSVKGRFTISRDNSKDTLYLQMNSLRAEDTALYYCARLFTGHAMDYWGQGTLVTVSS VL: QIVLTQSPATLSLSPGERATLSCTASSSVSSSYLHWYQQKPGKAPKLWIYSTSNLASGVPSRFSGSGSGTDYTLTISSLQPEDFATYYCHQYYRLHPITFGQGTKLEIKR | 2.1 | 3.84 | 3.77 nM | 0.00226 s⁻¹ | 600000 M⁻¹ s⁻¹ | 6.75 nM | 0.687 s⁻¹ | 1.02e+08 M⁻¹ s⁻¹
5 | C1_IPN92H0253-SG4GK/IPN93L0024-SK1 (antibody, human IgG4 S228P, kappa, name in Kabat numbering, V domains shown, Substitutions from IPN009VH2, Kabat numbering; also called IPN92H0253/IPN93L0024) VH: EVMLVESGGGLVKPGGSLRLSCAASGFTFSNYAMSWVRQAPGKGLEWVATISSGGSHTYYLDSVKGRFTISRDNSKDTLYLQMNSLRAEDTALYYCARLFTGHAMKYWGQGTLVTVSS VL: QIVLTQSPATLSLSPGERATLSCTASSSVSSSYLHWYQQKPGKAPKLWIYSTSNLASGVPSRFSGSGSGTDYTLTISSLQPEDFATYYCHQYYRLHPITFGQGTKLEIKR | 12.6 | 210 | 1.52 nM | 0.000717 s⁻¹ | 471000 M⁻¹ s⁻¹ | 25.4 nM | 0.0147 s⁻¹ | 578000 M⁻¹ s⁻¹
6 | C1_IPN92H0231-SG4GK/IPN93L0024-SK1 (antibody, human IgG4 S228P, kappa, name in Kabat numbering, V domains shown, Substitutions from IPN009VH2, Kabat numbering; also called IPN92H0231/IPN93L0024) VH: EVMLVESGGGLVKPGGSLRLSCAASGFTFSNYAMSWVRQAPGKGLEWVATISSGGSHTYYLDSVKGRFTISRDNSKDTLYLQMNSLRAEDTALYYCARLFTKHAMDYWGQGTLVTVSS VL: QIVLTQSPATLSLSPGERATLSCTASSSVSSSYLHWYQQKPGKAPKLWIYSTSNLASGVPSRFSGSGSGTDYTLTISSLQPEDFATYYCHQYYRLHPITFGQGTKLEIKR | 7.4 | 4.06 | 9.59 nM | 0.00544 s⁻¹ | 568000 M⁻¹ s⁻¹ | 5.28 nM | 0.00674 s⁻¹ | 1.28e+06 M⁻¹ s⁻¹

Results, then the binder that gave them:

Row | KD 5(+)/7(+) (human C1s [1]) | KD 5(-)/7(+) (human C1s [2]) | Kd (human C1s [3]) | koff (human C1s [3]) | kon (human C1s [3]) | Kd (human C1s [4]) | koff (human C1s [4]) | kon (human C1s [4]) | Binder
7 | 4 | 2.07 | 8.21 nM | 0.00413 s⁻¹ | 504000 M⁻¹ s⁻¹ | 4.21 nM | 0.0106 s⁻¹ | 2.53e+06 M⁻¹ s⁻¹ | C1_IPN92H0188-SG4GK/IPN93L0024-SK1 (antibody, human IgG4 S228P, kappa, name in Kabat numbering, V domains shown, Substitutions from IPN009VH2, Kabat numbering; also called IPN92H0188/IPN93L0024) VH: EVMLVESGGGLVKPGGSLRLSCAASGFTFSNYAMSWVRQAPGKGLEWVATISSGGSHTYYLDSVDGRFTISRDNSKDTLYLQMNSLRAEDTALYYCARLFTGHAMDYWGQGTLVTVSS VL: QIVLTQSPATLSLSPGERATLSCTASSSVSSSYLHWYQQKPGKAPKLWIYSTSNLASGVPSRFSGSGSGTDYTLTISSLQPEDFATYYCHQYYRLHPITFGQGTKLEIKR
8 | 6.5 | 7.29 | 5.72 nM | 0.00429 s⁻¹ | 751000 M⁻¹ s⁻¹ | 6.45 nM | 0.00517 s⁻¹ | 802000 M⁻¹ s⁻¹ | C1_IPN92H0194-SG4GK/IPN93L0024-SK1 (antibody, human IgG4 S228P, kappa, name in Kabat numbering, V domains shown, Substitutions from IPN009VH2, Kabat numbering; also called IPN92H0194/IPN93L0024) VH: EVMLVESGGGLVKPGGSLRLSCAASGFTFSNYAMSWVRQAPGKGLEWVATISSGGSHTYYLDSVKERFTISRDNSKDTLYLQMNSLRAEDTALYYCARLFTGHAMDYWGQGTLVTVSS VL: QIVLTQSPATLSLSPGERATLSCTASSSVSSSYLHWYQQKPGKAPKLWIYSTSNLASGVPSRFSGSGSGTDYTLTISSLQPEDFATYYCHQYYRLHPITFGQGTKLEIKR
9 | 5.7 | 3.46 | 8.49 nM | 0.00485 s⁻¹ | 570000 M⁻¹ s⁻¹ | 5.19 nM | 0.0173 s⁻¹ | 3.23e+06 M⁻¹ s⁻¹ | C1_IPN92H0232-SG4GK/IPN93L0024-SK1 (antibody, human IgG4 S228P, kappa, name in Kabat numbering, V domains shown, Substitutions from IPN009VH2, Kabat numbering; also called IPN92H0232/IPN93L0024) VH: EVMLVESGGGLVKPGGSLRLSCAASGFTFSNYAMSWVRQAPGKGLEWVATISSGGSHTYYLDSVKGRFTISRDNSKDTLYLQMNSLRAEDTALYYCARLFTRHAMDYWGQGTLVTVSS VL: QIVLTQSPATLSLSPGERATLSCTASSSVSSSYLHWYQQKPGKAPKLWIYSTSNLASGVPSRFSGSGSGTDYTLTISSLQPEDFATYYCHQYYRLHPITFGQGTKLEIKR
10 | 29.2 | 7.54 | 20 nM | 0.00684 s⁻¹ | 342000 M⁻¹ s⁻¹ | 5.17 nM | 0.00611 s⁻¹ | 1.18e+06 M⁻¹ s⁻¹ | C1_IPN92H0279-SG4GK/IPN93L0091-SK1 (antibody, human IgG4 S228P, kappa, name in Kabat numbering, V domains shown, Substitutions from IPN009VH2 / IPN009VK3, Kabat numbering; also called IPN92H0279/IPN93L0091) VH: EVMLVESGGGLVKPGGSLRLSCAASGFTFSNYAMSWVRQAPGKGLEWVATISSGGSHTYELDSVKERFTISRDNSKDTLYLQMNSLRAEDTALYYCARLFTKHAMDYWGQGTLVTVSS VL: QIVLTQSPATLSLSPGERATLSCTASSSVSSSRLHWYQQKPGKAPKLWIYSTSNLASGVPSRFSGSGSGTDYTLTISSLQPEDFATYYCHQYYRLHPITFGQGTKLEIKR
11 | 6.2 | 3.47 | 5.74 nM | 0.00417 s⁻¹ | 727000 M⁻¹ s⁻¹ | 3.21 nM | 0.0685 s⁻¹ | 2.14e+07 M⁻¹ s⁻¹ | C1_IPN92H0193-SG4GK/IPN93L0024-SK1 (antibody, human IgG4 S228P, kappa, name in Kabat numbering, V domains shown, Substitutions from IPN009VH2, Kabat numbering; also called IPN92H0193/IPN93L0024) VH: EVMLVESGGGLVKPGGSLRLSCAASGFTFSNYAMSWVRQAPGKGLEWVATISSGGSHTYYLDSVKDRFTISRDNSKDTLYLQMNSLRAEDTALYYCARLFTGHAMDYWGQGTLVTVSS VL: QIVLTQSPATLSLSPGERATLSCTASSSVSSSYLHWYQQKPGKAPKLWIYSTSNLASGVPSRFSGSGSGTDYTLTISSLQPEDFATYYCHQYYRLHPITFGQGTKLEIKR
